Data published in patent US12338277.

What was measured:
Experiment in all cases: cell-based or functional assay
[1] = molecular target: HIV-1 Env of pseudovirus T250-4 (HIV-1)
[2] = molecular target: HIV-1 Env of pseudovirus X2088_c9 (HIV-1)
[3] = molecular target: HIV-1 envelope of pseudovirus Du422.1 (HIV-1)
[4] = molecular target: HIV-1 envelope of pseudovirus CNE19 (HIV-1)
[5] = molecular target: HIV-1 envelope glycoprotein of pseudovirus 6952.v1.c20 (clade CD) (HIV-1)
[6] = molecular target: HIV-1 envelope glycoprotein of pseudovirus 62357_14_D3_4589 (clade B (T/F)) (HIV-1)
[7] = molecular target: HIV-1 envelope glycoprotein of pseudovirus HIV-16845-2.22 (clade C) (HIV-1)
[8] = molecular target: HIV-1 envelope glycoprotein of pseudovirus T251-18 (clade CRF02_AG) (HIV-1)
[9] = molecular target: HIV-1 envelope glycoprotein of pseudovirus PVO.4 (clade B) (HIV-1)
[10] = molecular target: HIV-1 envelope glycoprotein of pseudovirus Ce1086_B2 (clade C (T/F)) (HIV-1)
[11] = molecular target: HIV-1 envelope glycoprotein of pseudovirus CNE30 (clade BC) (HIV-1)
[12] = molecular target: HIV-1 envelope glycoprotein of pseudovirus 211-9 (clade CRF02_AG) (HIV-1)
[13] = molecular target: HIV-1 envelope of pseudovirus ZM233M.PB6 (HIV-1)
[14] = molecular target: HIV-1 envelope glycoprotein of pseudovirus RHPA4259.7 (clade B) (HIV-1)
[15] = molecular target: HIV-1 envelope glycoprotein of pseudovirus 6244_13_B5_4576 (clade B (T/F)) (HIV-1)
[16] = molecular target: HIV-1 envelope glycoprotein of pseudovirus CNE52 (clade BC) (HIV-1)
[17] = molecular target: HIV-1 envelope glycoprotein of pseudovirus 1394C9G1(Rev-) (clade C (T/F)) (HIV-1)
[18] = molecular target: HIV-1 envelope glycoprotein of pseudovirus YU.2 (clade B) (HIV-1) (UniProt P35961)
[19] = molecular target: HIV-1 envelope glycoprotein of pseudovirus ZM135M.PL10a (clade C) (HIV-1)
[20] = molecular target: HIV-1 Env of pseudovirus BJOX009000.02.4 (HIV-1)

10-996 (antibody), sequence (VH): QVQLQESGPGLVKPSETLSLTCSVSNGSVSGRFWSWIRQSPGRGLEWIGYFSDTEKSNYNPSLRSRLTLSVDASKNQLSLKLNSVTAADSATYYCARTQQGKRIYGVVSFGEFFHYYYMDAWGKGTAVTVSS
10-996 (antibody), sequence (VL): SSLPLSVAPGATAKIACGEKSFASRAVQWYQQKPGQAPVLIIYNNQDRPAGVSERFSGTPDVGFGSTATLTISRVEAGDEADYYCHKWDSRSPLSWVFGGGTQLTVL
10-1074 (antibody), sequence (VH): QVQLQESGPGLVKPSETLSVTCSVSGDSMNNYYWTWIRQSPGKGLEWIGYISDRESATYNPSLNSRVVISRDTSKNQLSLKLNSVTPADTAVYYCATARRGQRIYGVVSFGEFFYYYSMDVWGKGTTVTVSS
10-1074 (antibody), sequence (V domain): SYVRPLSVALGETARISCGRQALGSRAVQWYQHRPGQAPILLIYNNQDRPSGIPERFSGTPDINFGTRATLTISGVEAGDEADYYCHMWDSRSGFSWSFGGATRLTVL
HIV-1 envelope glycoprotein of pseudovirus YU.2 (clade B) (HIV-1), sequence (P35961 32-843): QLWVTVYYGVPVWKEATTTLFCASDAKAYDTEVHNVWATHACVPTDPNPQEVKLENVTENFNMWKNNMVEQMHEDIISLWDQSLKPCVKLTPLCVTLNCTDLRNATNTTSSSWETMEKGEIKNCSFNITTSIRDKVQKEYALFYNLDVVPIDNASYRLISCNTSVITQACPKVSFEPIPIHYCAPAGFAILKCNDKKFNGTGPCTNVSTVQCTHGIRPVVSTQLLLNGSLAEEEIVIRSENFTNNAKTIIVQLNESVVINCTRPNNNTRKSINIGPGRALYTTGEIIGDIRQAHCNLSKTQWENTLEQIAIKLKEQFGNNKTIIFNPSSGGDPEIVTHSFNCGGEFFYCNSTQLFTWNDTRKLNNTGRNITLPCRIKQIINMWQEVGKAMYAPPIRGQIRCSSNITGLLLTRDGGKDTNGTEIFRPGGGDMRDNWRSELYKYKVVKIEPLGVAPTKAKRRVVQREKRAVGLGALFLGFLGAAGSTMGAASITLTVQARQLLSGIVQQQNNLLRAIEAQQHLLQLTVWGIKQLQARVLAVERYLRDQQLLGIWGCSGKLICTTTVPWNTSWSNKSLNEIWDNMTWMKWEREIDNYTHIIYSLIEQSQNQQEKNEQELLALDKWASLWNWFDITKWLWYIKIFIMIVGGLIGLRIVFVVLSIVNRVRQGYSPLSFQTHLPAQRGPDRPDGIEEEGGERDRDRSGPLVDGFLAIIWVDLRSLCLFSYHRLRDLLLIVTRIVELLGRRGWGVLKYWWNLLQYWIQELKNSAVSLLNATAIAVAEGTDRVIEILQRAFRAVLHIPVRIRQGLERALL

10-996 (antibody) gave an IC80 (TZM-bl neutralization) [1] of 0.005 µg/mL, an IC80 (TZM-bl neutralization) [2] of 0.014 µg/mL and an IC50 (TZM-bl neutralization) [3] of 0.056 µg/mL. The IC50 (TZM-bl neutralization) [4] was 3.45 µg/mL.

For PGT121 (antibody), the IC50 in the TZM-bl neutralization assay [5] was 0.605 µg/mL, the IC50 in the TZM-bl neutralization assay [6] was 45.6 µg/mL and the IC50 in the TZM-bl neutralization assay [7] was > 50 µg/mL. The IC50 in the TZM-bl neutralization assay [8] was > 50 µg/mL, the IC50 in the TZM-bl neutralization assay [9] was 0.945 µg/mL and the IC50 in the TZM-bl neutralization assay [10] was 0.006 µg/mL. It also gave an IC50 in the TZM-bl neutralization assay [11] of 0.559 µg/mL, an IC50 in the TZM-bl neutralization assay [12] of 8.84 µg/mL and an IC50 (TZM-bl neutralization) [13] of 1.45 µg/mL. It also gave an IC50 in the TZM-bl neutralization assay [14] of 0.054 µg/mL, an IC50 in the TZM-bl neutralization assay [15] of 1.88 µg/mL and an IC50 in the TZM-bl neutralization assay [16] of 32.9 µg/mL. The IC50 in the TZM-bl neutralization assay [17] was 3.37 µg/mL, the IC50 in the TZM-bl neutralization assay [18] was 0.356 µg/mL and the IC50 in the TZM-bl neutralization assay [19] was 5.88 µg/mL. For the same substance, the IC80 (TZM-bl neutralization) [20] was 37.3 µg/mL.

For 10-1074 (antibody), the IC50 in the TZM-bl neutralization assay [5] was 0.138 µg/mL, the IC50 in the TZM-bl neutralization assay [6] was > 50 µg/mL and the IC50 in the TZM-bl neutralization assay [7] was 5.83 µg/mL. It also gave an IC50 in the TZM-bl neutralization assay [8] of 7.39 µg/mL, an IC80 (TZM-bl neutralization) [1] of 0.005 µg/mL and an IC80 (TZM-bl neutralization) [2] of 0.014 µg/mL. The IC50 in the TZM-bl neutralization assay [9] was 0.36 µg/mL, the IC50 in the TZM-bl neutralization assay [10] was > 50 µg/mL and the IC50 in the TZM-bl neutralization assay [11] was 1.2 µg/mL. It also gave an IC50 in the TZM-bl neutralization assay [12] of 0.425 µg/mL, an IC50 (TZM-bl neutralization) [13] of 0.06 µg/mL and an IC50 in the TZM-bl neutralization assay [14] of 0.118 µg/mL. For the same substance, the IC50 in the TZM-bl neutralization assay [15] was 0.922 µg/mL, the IC50 in the TZM-bl neutralization assay [16] was 13.1 µg/mL and the IC50 in the TZM-bl neutralization assay [17] was 0.191 µg/mL. The IC50 in the TZM-bl neutralization assay [18] was 0.398 µg/mL, the IC50 in the TZM-bl neutralization assay [19] was 0.367 µg/mL and the IC80 (TZM-bl neutralization) [20] was > 50 µg/mL. The IC50 (TZM-bl neutralization) [3] was 0.045 µg/mL and the IC50 (TZM-bl neutralization) [4] was 50 µg/mL.
